Results as given in patent publication US11091546B2, “Optimized PNE-based chimeric receptor T cell switches and uses thereof” (The Scripps Research Institute, priority 2015, dated 2021).
Where “and” joins values, the source holds several entries; their conditions need not be identical. Equal entries are not always repeated.

How the values were obtained:
Nalm-6^Luc/GFP cells = assay: Nalm-6 Luc/GFP leukemia xenograft; assay type: in vivo; details: IgG format
Description: NSG mice were inoculated with CD19^+ Nalm-6^GFP/Luc cells. Six days later, 40×10^6 sCAR-T cells were delivered IV and switch dosing commenced every other day at 0.5 mg/kg for 10 days. Tumor burden was followed by luminescence after injection of luciferin and imaged on an in vivo imaging system (IVIS; PerkinElmer, Waltham, Mass., USA).
Asterisks indicate significance from LCNT Fab group. Data are represented as means±SEM, and statistical significance was calculated using the 2-way ANOVA with Bonferroni's post-test (B & E; shown for final time-point only) or by one-tailed student's t-test (C & F) where *=p<0.05, **=p<0.01 and ***=p<0.001.
NSG mice were inoculated with Nalm-6^GFP/Luc as described in FIG. 28. […] A fourth group consisted of two cohorts (n=3) of mice injected I.V. with sCAR-T cells without (−) LCNT Fab switch. LCNT Fab dosing in the indicated group was carried out daily at 0.5 mg/kg after the initial T cell infusion. Luminescence was measured at 6 h and subsequently every 24 h as indicated. Cohorts were sacrificed for analysis immediately following IVIS imaging. […] Gray lines indicate tumor burden in PBS and sCAR-T cell—LCNT Fab controls. […] Data are represented as means±SEM, and statistical significance was calculated using the one-tailed student's t-test (C & D) where *=p<0.05, **=p<0.01 and ***=p<0.001.
NSG mice were inoculated with Nalm6^GFP/Luc and six days later engrafted with short-dimeric sCAR-T cells as described in FIG. 29. […] Dosing was carried out for 15 d starting at day 6 (corresponding with sCAR-T cell infusion) as indicated by gray shading. Control groups CART-19 and PBS received no switch. The NS group received sCAR-T cells but no switch. Open circles denote the death of individual mice without evidence of tumor burden and may reflect GVHD. Triangles in PBS, NS and q.a.d. group indicate death due to increasing tumor burden. […] (19) indicates CART-19. […] (19) indicates CART-19. […] Triangles indicate the death of individual mice with significant tumor burden. The single mouse death in the 0.05 mg/kg group occurred while tumor burden was decreasing. […] Statistical significance was calculated using the one-tailed student's t-test (B, C & E) where *=p<0.05, **=p<0.01 and ***=p<0.001.
The different sCAR designs were tested in a xenograft model harboring luciferized NALM-6 (CD19+, CD80−, CD86−) cells. 1 mg/kg monovalent switch “A” was administered along with sCAR cells. […] Optimized hinge improved response. Short hinge CARs have faster clearance. Short, dimeric hinge CARs have improved persistence. Tumor burden was visualized with IVIS imaging. Experiments are repeated with a humanized scFv and bivalent switches.
Activity of the switchable CAR-T cell platform in vivo was evaluated via tumor regression in a Nalm-6^Luc/GFP leukemia xenograft model in immunodeficient NOD scid gamma (NSG) mice. These mice without treatment succumb to disease within 21 days. The impact of CAR hinge design on in vivo efficacy was determined using mice inoculated with Nalm-6^Luc/GFP, followed by I.V. injection of long, short, or short-dimeric sCAR-T cells 6 days later. The LCNT Fab was dosed I.V. (0.5 mg/kg) every other day for 10 days and tumor regression was followed by in vivo imaging (IVIS) of the luciferase signal from Nalm-6^Luc/GFP cells (FIG. 29A).
The effect of switch grafting position on the control of tumor burden was determined. As with the previous model, short-dimeric CAR-T cells were injected 6 days after tumor inoculation and mice were treated every other day (starting at day 6) with 0.5 mg/kg LCNT, HCNT, NTBV, LCC1, or HCCT Fab switches (FIG. 29D).
To determine the proliferation and localization of sCAR-T cell cytotoxicity during this time interval, mice were sorted into 5 cohorts per treatment regimen and analyzed at 8, 24, 48, 72, and 96 h after treatment with short-dimeric sCAR-T cells+LCNT Fab switch or with conventional CART-19 and no switch. […]

MOLM14 cell line = assay: Cytokines in cytotoxicity assay supernatant (CBA Human Th1/Th2 II Kit); assay type: cell-based; set-up: unit not given here; details: duplicates
Excerpt: (§1) FIG. 38A illustrates multiple fusion/grafting locations: A=LCNT1 (light chain N terminus version 1), B=HCNT3 (heavy chain N terminus version 3), C=heavy chain C terminus, and D=light chain C terminus). […] Data shown are an average of duplicate samples, and error bars represent SD. Only the NT switches plus the BvCT and By CH1CL1 as references are depicted.
(§2) Monovalent and bivalent combinations of these switches were expressed and tested in cytotoxicity assays at a dose titration within the range of 0.4 nM to 0.0001 nM. […] Data shown are an average of duplicate samples, and error bars represent SD. Only the NT switches plus the BvCT and By CH1CL1 as references are depicted. cytokine secretion was measured.

CD33+ MOLM14 cells = assay: Cytotoxicity assay, sCAR-T cells + anti-CD33 (hP67.6) switches; assay type: cell-based; set-up: unit not given here; details: duplicates
Excerpt: as §1, §2

CD123+ MOLM14 cells = assay: Flow cytometry based cytotoxicity assay, sCAR-T cells + anti-CD123 Fab switches; assay type: cell-based; details: duplicates
Description: as §1
The flow cytometry based cytotoxicity assay were performed in RPMI-1640 media supplemented with 5% heat inactivated FBS, 1% Pen/Strep, 1% glutamine, and 1% Sodium pyruvate. Target cells (2×10^4 cells) were pre-labeled with CellVue Claret Far Red Fluorescent Cell linker (Sigma-Aldrich) and co-cultured with 1×10^5 sCAR-T cells. Variable concentration of switch was added to assess in vitro activity. This assay was conducted in a volume of 100 ul in 96-well U bottom plate for 24 hours, after which the cells were stained with 7-AAD viability dye (1:100; BD Biosciences) in FACs staining buffer (PBS with 2 mM EDTA and 1% FCS) and acquired on BD Accuri C6 flow cytometer. The viability was calculated as following formula: […]=[(no switch viable target cells-experimental viable target cells)/no switch viable target cells]*100
Activity was confirmed by flow cytometry based cytotoxicity assay (FIG. 38J & FIG. 38K). FIG. 38J and Table 31. […] FIG. 38K and Table 32.

Molecule: anti-CD19 IgG LCNT: FMC63 anti-CD19 IgG, peptide on N-terminus of light chain (SEQ ID 36 & 28)
- tumor burden (IVIS) (Nalm-6^Luc/GFP cells; 0.5 mg/kg every 5 days for 15 days (3 doses)): unable to significantly control tumor burden
- tumor growth (Nalm-6^Luc/GFP cells; 1 mg/kg every day for 10 d): unable to control tumor growth

Molecule: hP67.6 NTBV: anti-CD33 hP67.6 Fab, N-terminal bivalent (SEQ ID 217 & 220)
- IFNg in supernatant (FIG. 38H) (MOLM14 cell line): 957.81 and 958.26
- Il-2 in supernatant (FIG. 38H) (MOLM14 cell line): 936.57 and 898.28
- TNFa in supernatant (FIG. 38H) (MOLM14 cell line): 98.48 and 97.95
- cytotoxicity (FIG. 38G) (CD33+ MOLM14 cells; switch 0.1 pM): 0
- cytotoxicity (FIG. 38G) (CD33+ MOLM14 cells; switch 0.64 pM): 0.9 and 0.8
- cytotoxicity (FIG. 38G) (CD33+ MOLM14 cells; switch 3.2 pM): 23.6 and 28.4
- cytotoxicity (FIG. 38G) (CD33+ MOLM14 cells; switch 16 pM): 55.4 and 57.1
- cytotoxicity (FIG. 38G) (CD33+ MOLM14 cells; switch 80 pM): 69.7 and 69.2
- cytotoxicity (FIG. 38G) (CD33+ MOLM14 cells; switch 400 pM): 69.3 and 69.5

Molecule: hP67.6 LCNT: anti-CD33 hP67.6 Fab, GCN4 on light chain N-terminus, GGGGS linker (SEQ ID 217 & 232)
- IFNg in supernatant (FIG. 38H) (MOLM14 cell line): 448.47 and 374.76
- Il-2 in supernatant (FIG. 38H) (MOLM14 cell line): 328.62 and 234
- TNFa in supernatant (FIG. 38H) (MOLM14 cell line): 53.4 and 44.84
- cytotoxicity (FIG. 38G) (CD33+ MOLM14 cells; switch 0.1 pM): 0
- cytotoxicity (FIG. 38G) (CD33+ MOLM14 cells; switch 0.64 pM): 5.9 and 4.6
- cytotoxicity (FIG. 38G) (CD33+ MOLM14 cells; switch 3.2 pM): 36.9 and 35.9
- cytotoxicity (FIG. 38G) (CD33+ MOLM14 cells; switch 16 pM): 58.7 and 59.2
- cytotoxicity (FIG. 38G) (CD33+ MOLM14 cells; switch 80 pM): 66 and 66.5
- cytotoxicity (FIG. 38G) (CD33+ MOLM14 cells; switch 400 pM): 59.5 and 60.9

B1: 26292 NTBv: anti-CD123 clone 26292 Fab, N-terminal bivalent (protein)
light: NYHLENEVARLKKLGGGGSDVQITQSPSYLAASPGETITINCRASKSISKDLAWYQEKPGKTNKLLIYSGSTLQSGIPSRFSGSGSGTDFTLTISSLEPEDFAMYYCQQHNKYPYTFGGGTKLEIRTVAAPSVFIFPPSDEQLKSGTASVVCLLNNFYPREAKVQWKVDNALQSGNSQESVTEQDSKDSTYSLSSTLTLSKADYEKHKVYACEVTHQGLSSPVTKSFNRGEC
heavy: NYHLENEVARLKKLLVGEAAAKEAAAKAQVQLQQPGAELVRPGASVKLSCKASGYTFTSYWMNWVKQRPDQGLEWIGRIDPYDSETHYNQKFKDKAILTVDKSSSTAYMQLSSLTSEDSAVYYCARGNWDDYWGQGTTLTVSSARTKGPSVFPLAPSSKSTSGGTAALGCLVKDYFPEPVTVSWNSGALTSGVHTFPAVLQSSGLYSLSSVVTVPSSSLGTQTYICNVNHKPSNTKVDKKVEPKSC
- Percent of cytotoxicity in target cells (CD123+ MOLM14 cells; FIG. 38J, clone 26292, switch 0.01 pM): 0%
- Percent of cytotoxicity in target cells (CD123+ MOLM14 cells; FIG. 38J, clone 26292, switch 0.128 pM): 2% and 3.4%
- Percent of cytotoxicity in target cells (CD123+ MOLM14 cells; FIG. 38J, clone 26292, switch 0.64 pM): 7.4% and 6.4%
- Percent of cytotoxicity in target cells (CD123+ MOLM14 cells; FIG. 38J, clone 26292, switch 3.2 pM): 9.8% and 4.1%
- Percent of cytotoxicity in target cells (CD123+ MOLM14 cells; FIG. 38J, clone 26292, switch 16 pM): 16.5% and 19.3%
- Percent of cytotoxicity in target cells (CD123+ MOLM14 cells; FIG. 38J, clone 26292, switch 80 pM): 31.4% and 33.2%
- Percent of cytotoxicity in target cells (CD123+ MOLM14 cells; FIG. 38J, clone 26292, switch 400 pM): 57.5% and 55.5%
- Percent of cytotoxicity in target cells (CD123+ MOLM14 cells; FIG. 38J, clone 26292, switch 2000 pM): 64.2% and 62.1%
- Percent of cytotoxicity in target cells (CD123+ MOLM14 cells; FIG. 38J, clone 26292, switch 10000 pM): 55.3% and 57.4%

B2: 32716 NTBv: anti-CD123 clone 32716 Fab, N-terminal bivalent (protein)
light: NYHLENEVARLKKLGGGGSDIVLTQSPASLAVSLGQRATISCRASESVDNYGNTFMHWYQQKPGQPPKLLIYRASNLESGIPARFSGSGSRTDFTLTINPVEADDVATYYCQQSNEDPPTFGAGTKLELRTVAAPSVFIFPPSDEQLKSGTASVVCLLNNFYPREAKVQWKVDNALQSGNSQESVTEQDSKDSTYSLSSTLTLSKADYEKHKVYACEVTHQGLSSPVTKSFNRGEC
heavy: NYHLENEVARLKKLLVGEAAAKEAAAKAQIQLVQSGPELKKPGETVKISCKASGYIFTNYGMNWVKQAPGKSFKWMGWINTYTGESTYSADFKGRFAFSLETSASTAYLHINDLKNEDTATYFCARSGGYDPMDYWGQGTSVTVSSARTKGPSVFPLAPSSKSTSGGTAALGCLVKDYFPEPVTVSWNSGALTSGVHTFPAVLQSSGLYSLSSVVTVPSSSLGTQTYICNVNHKPSNTKVDKKVEPKSC
- Percent of cytotoxicity in target cells (CD123+ MOLM14 cells; FIG. 38K, clone 32716, switch 0.01 pM): 0%
- Percent of cytotoxicity in target cells (CD123+ MOLM14 cells; FIG. 38K, clone 32716, switch 0.128 pM): 2.2% and 3.1%
- Percent of cytotoxicity in target cells (CD123+ MOLM14 cells; FIG. 38K, clone 32716, switch 0.64 pM): 1.6% and −6.4%
- Percent of cytotoxicity in target cells (CD123+ MOLM14 cells; FIG. 38K, clone 32716, switch 3.2 pM): 6.4% and 0.2%
- Percent of cytotoxicity in target cells (CD123+ MOLM14 cells; FIG. 38K, clone 32716, switch 16 pM): 13.7% and 12.6%
- Percent of cytotoxicity in target cells (CD123+ MOLM14 cells; FIG. 38K, clone 32716, switch 80 pM): 27% and 28.5%
- Percent of cytotoxicity in target cells (CD123+ MOLM14 cells; FIG. 38K, clone 32716, switch 400 pM): 50.9% and 44.5%
- Percent of cytotoxicity in target cells (CD123+ MOLM14 cells; FIG. 38K, clone 32716, switch 2000 pM): 60.9% and 55.7%
- Percent of cytotoxicity in target cells (CD123+ MOLM14 cells; FIG. 38K, clone 32716, switch 10000 pM): 58.3% and 51%
